Measurements taken from publication PMC6535915 (ASN NEURO, 2019).

Target: T1, connexin 36 (rat (endogenous in supraoptic nucleus), UniProt O70610 1-321)
T1 sequence (looked up): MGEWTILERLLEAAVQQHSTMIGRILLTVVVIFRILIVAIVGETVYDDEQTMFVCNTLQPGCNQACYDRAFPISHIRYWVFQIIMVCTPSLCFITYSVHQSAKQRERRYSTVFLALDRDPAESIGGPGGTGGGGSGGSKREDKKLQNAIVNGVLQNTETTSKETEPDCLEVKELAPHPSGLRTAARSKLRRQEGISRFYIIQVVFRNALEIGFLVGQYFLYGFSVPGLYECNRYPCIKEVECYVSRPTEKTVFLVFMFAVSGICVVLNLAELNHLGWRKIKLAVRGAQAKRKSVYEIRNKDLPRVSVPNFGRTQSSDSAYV
Assay: co-IP

fold co-precipitated OT-NP in lactating rats relative to virgin rats: 1.61 fold
B1: oxytocin-neurophysin (natural protein, rat (endogenous in supraoptic nucleus), UniProt P01179 20-125, looked up)
chain: CYIQNCPLGGKRAALDLDMRKCLPCGPGGKGRCFGPSICCADELGCFVGTAEALRCQEENYLPSPCQSGQKPCGSGGRCATAGICCSPDGCRTDPACDPESAFSER
